Measured values as given in patent US20140087995A1 (published 2014).
Numbered stars: 1 amine (or outer) side, 2 acyl side, 3 side chain; on linkers, the order of the positions; unused ones are H or OH. Bridge positions count the residues as written; N and C are the ends. Side chains are listed from the residue outwards. Ends that are not written are not given here. * marks the point of attachment. C20 diacid = O=C(O)CCCCCCCCCCCCCCCCCCC(=O)*; γGlu = O=C(O)[C@H](CCC(=O)[*:2])N[*:1]

T1: rat amylin receptor (rat calcitonin receptor + rat RAMP 3) (rat, UniProt P32214 25-516; Q9JJ73 23-147)
T1 construct: whole, on cells; Membranes prepared from transiently transfected BHK tk'ts 13 cells; also called rAmylin-R; rat amylin 3(a) receptor
T1 sequence (looked up) 1: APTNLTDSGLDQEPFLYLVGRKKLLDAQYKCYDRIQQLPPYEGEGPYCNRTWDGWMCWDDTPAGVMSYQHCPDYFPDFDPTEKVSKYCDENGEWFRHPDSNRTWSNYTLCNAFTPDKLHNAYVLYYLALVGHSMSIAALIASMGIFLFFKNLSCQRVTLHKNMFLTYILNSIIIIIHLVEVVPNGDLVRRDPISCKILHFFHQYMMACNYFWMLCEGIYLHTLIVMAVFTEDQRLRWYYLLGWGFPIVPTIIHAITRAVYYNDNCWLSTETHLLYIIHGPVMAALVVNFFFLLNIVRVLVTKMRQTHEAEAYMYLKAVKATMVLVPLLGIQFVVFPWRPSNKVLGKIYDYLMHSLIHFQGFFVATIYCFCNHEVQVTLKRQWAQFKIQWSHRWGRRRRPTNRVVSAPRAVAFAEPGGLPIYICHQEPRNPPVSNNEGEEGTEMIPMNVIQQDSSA
T1 sequence (looked up) 2: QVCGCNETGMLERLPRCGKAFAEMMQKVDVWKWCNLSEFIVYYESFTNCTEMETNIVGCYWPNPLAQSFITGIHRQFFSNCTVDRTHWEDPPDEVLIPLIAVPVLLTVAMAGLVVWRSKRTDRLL

T2: rat calcitonin receptor (rat, UniProt P32214 25-516)
T2 construct: whole, on cells; Membranes prepared from transiently transfected BHK tk'ts 13 cells; also called rCTR; rat calcitonin (a) receptor
T2 sequence (looked up): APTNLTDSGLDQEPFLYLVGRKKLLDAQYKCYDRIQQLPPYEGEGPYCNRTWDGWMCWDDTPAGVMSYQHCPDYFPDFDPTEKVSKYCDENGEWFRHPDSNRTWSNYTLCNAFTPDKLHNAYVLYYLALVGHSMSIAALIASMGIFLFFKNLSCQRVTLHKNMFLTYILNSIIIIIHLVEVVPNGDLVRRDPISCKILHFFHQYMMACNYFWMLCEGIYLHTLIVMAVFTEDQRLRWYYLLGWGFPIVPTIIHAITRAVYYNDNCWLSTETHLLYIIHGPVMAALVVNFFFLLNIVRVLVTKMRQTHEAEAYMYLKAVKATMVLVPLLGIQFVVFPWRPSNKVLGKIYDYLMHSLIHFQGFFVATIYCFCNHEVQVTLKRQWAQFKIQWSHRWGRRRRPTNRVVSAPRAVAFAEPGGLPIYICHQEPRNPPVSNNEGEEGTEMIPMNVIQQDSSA

T3: human calcitonin receptor (human, UniProt P30988 25-474)
T3 construct: whole, on cells; Membranes from stably transfected BHK cells; also called hCTR; hCT
T3 sequence (looked up): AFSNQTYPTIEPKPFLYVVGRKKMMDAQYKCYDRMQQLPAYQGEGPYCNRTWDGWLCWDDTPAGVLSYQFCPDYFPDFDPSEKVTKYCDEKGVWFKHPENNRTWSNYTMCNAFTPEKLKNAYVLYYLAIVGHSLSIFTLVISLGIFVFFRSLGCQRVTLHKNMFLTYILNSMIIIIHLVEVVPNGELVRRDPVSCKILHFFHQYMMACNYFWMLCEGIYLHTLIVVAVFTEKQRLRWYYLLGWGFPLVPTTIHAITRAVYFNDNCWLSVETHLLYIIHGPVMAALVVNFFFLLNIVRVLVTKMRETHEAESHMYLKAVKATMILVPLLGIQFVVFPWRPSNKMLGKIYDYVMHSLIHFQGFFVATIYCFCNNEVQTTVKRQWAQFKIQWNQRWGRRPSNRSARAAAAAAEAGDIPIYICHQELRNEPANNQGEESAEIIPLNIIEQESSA


Experiments:
[1] = biological target: T1, rat amylin receptor (rat calcitonin …); assay: SPA competition vs 125I-rat amylin, membranes (Assay VI)
rat calcitonin receptor [2] = biological target: T2, rat calcitonin receptor; assay: SPA competition vs 125I-calcitonin, membranes (Assay VIII)
rat calcitonin receptor [3] = biological target: T2, rat calcitonin receptor; assay: ratio of IC50 on rat calcitonin receptor to IC50 on rat amylin receptor
[4] = biological target: T3, human calcitonin receptor; assay: ratio of IC50 on human calcitonin receptor to IC50 on human amylin receptor
Outline: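 Membranes (35 ng/μL final) + SPA beads, 50 mM Hepes pH 7.4 buffer with 1 mM CaCl2, 5 mM MgCl₂, 0.1% OA, 0.02% Tween20; 120 min, 25° C, shaking; centrifuged, counted; IC₅₀ by one-site binding competition.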

Binder	IC50 [1]	IC50 (rat calcitonin receptor [2])	Ratio rCT/rAmylin binding (rat calcitonin receptor [3])	Ratio hCT/hAmylin binding [4]
K([γGlu-C20 diacid])CNTATCATQRLAEFLRHSSPNFGAIPSSTNVGPRTY-NH2 (disulfide 2-7; N-terminus assumed; SMILES CC[C@H](C)[C@H](NC(=O)[C@H](C)NC(=O)CNC(=O)[C@H](Cc1ccccc1)NC(=O)[C@H](CC(N)=O)NC(=O)[C@@H]1CCCN1C(=O)[C@H](CO)NC(=O)[C@H](CO)NC(=O)[C@H](Cc1c[nH]cn1)NC(=O)[C@H](CCCNC(=N)N)NC(=O)[C@H](CC(C)C)NC(=O)[C@H](Cc1ccccc1)NC(=O)[C@H](CCC(=O)O)NC(=O)[C@H](C)NC(=O)[C@H](CC(C)C)NC(=O)[C@H](CCCNC(=N)N)NC(=O)[C@H](CCC(N)=O)NC(=O)[C@@H](NC(=O)[C@H](C)NC(=O)[C@@H]1CSSC[C@H](NC(=O)[C@@H](N)CCCCNC(=O)CC[C@H](NC(=O)CCCCCCCCCCCCCCCCCCC(=O)O)C(=O)O)C(=O)N[C@@H](CC(N)=O)C(=O)N[C@@H]([C@@H](C)O)C(=O)N[C@@H](C)C(=O)N[C@@H]([C@@H](C)O)C(=O)N1)[C@@H](C)O)C(=O)N1CCC[C@H]1C(=O)N[C@@H](CO)C(=O)N[C@@H](CO)C(=O)N[C@H](C(=O)N[C@@H](CC(N)=O)C(=O)N[C@H](C(=O)NCC(=O)N1CCC[C@H]1C(=O)N[C@@H](CCCNC(=N)N)C(=O)N[C@H](C(=O)N[C@@H](Cc1ccc(O)cc1)C(N)=O)[C@@H](C)O)C(C)C)[C@@H](C)O)	0.339 nM	15.4 nM	45.5	38.6
K([γGlu-γGlu-C20 diacid])CNTATCATQRLAEFLRHSSPNFGAIPSSTNVGRETY-NH2 (disulfide 2-7; N-terminus assumed; SMILES CC[C@H](C)[C@H](NC(=O)[C@H](C)NC(=O)CNC(=O)[C@H](Cc1ccccc1)NC(=O)[C@H](CC(N)=O)NC(=O)[C@@H]1CCCN1C(=O)[C@H](CO)NC(=O)[C@H](CO)NC(=O)[C@H](Cc1c[nH]cn1)NC(=O)[C@H](CCCNC(=N)N)NC(=O)[C@H](CC(C)C)NC(=O)[C@H](Cc1ccccc1)NC(=O)[C@H](CCC(=O)O)NC(=O)[C@H](C)NC(=O)[C@H](CC(C)C)NC(=O)[C@H](CCCNC(=N)N)NC(=O)[C@H](CCC(N)=O)NC(=O)[C@@H](NC(=O)[C@H](C)NC(=O)[C@@H]1CSSC[C@H](NC(=O)[C@@H](N)CCCCNC(=O)CC[C@H](NC(=O)CC[C@H](NC(=O)CCCCCCCCCCCCCCCCCCC(=O)O)C(=O)O)C(=O)O)C(=O)N[C@@H](CC(N)=O)C(=O)N[C@@H]([C@@H](C)O)C(=O)N[C@@H](C)C(=O)N[C@@H]([C@@H](C)O)C(=O)N1)[C@@H](C)O)C(=O)N1CCC[C@H]1C(=O)N[C@@H](CO)C(=O)N[C@@H](CO)C(=O)N[C@H](C(=O)N[C@@H](CC(N)=O)C(=O)N[C@H](C(=O)NCC(=O)N[C@@H](CCCNC(=N)N)C(=O)N[C@@H](CCC(=O)O)C(=O)N[C@H](C(=O)N[C@@H](Cc1ccc(O)cc1)C(N)=O)[C@@H](C)O)C(C)C)[C@@H](C)O)	2.86 nM	452 nM	158	14.7
K([γGlu-γGlu-C20 diacid])CNTATCATQRLADFLRHSSPNFGAIPSSTNVGPETY-NH2 (disulfide 2-7)	0.324 nM	31.9 nM	98.5	49.8
K([γGlu-γGlu-C20 diacid])CNTATCATQRLADFLRHSSPNFGAIPSSTNVGPRTY-NH2 (disulfide 2-7, also called compound 130)	0.93 nM	223 nM	240	280
K([γGlu-γGlu-C20 diacid])CNTATCATQRLANFLRHSSPNFGAIPSSTPVGPRTY-NH2 (disulfide 2-7; N-terminus assumed; SMILES CC[C@H](C)[C@H](NC(=O)[C@H](C)NC(=O)CNC(=O)[C@H](Cc1ccccc1)NC(=O)[C@H](CC(N)=O)NC(=O)[C@@H]1CCCN1C(=O)[C@H](CO)NC(=O)[C@H](CO)NC(=O)[C@H](Cc1c[nH]cn1)NC(=O)[C@H](CCCNC(=N)N)NC(=O)[C@H](CC(C)C)NC(=O)[C@H](Cc1ccccc1)NC(=O)[C@H](CC(N)=O)NC(=O)[C@H](C)NC(=O)[C@H](CC(C)C)NC(=O)[C@H](CCCNC(=N)N)NC(=O)[C@H](CCC(N)=O)NC(=O)[C@@H](NC(=O)[C@H](C)NC(=O)[C@@H]1CSSC[C@H](NC(=O)[C@@H](N)CCCCNC(=O)CC[C@H](NC(=O)CC[C@H](NC(=O)CCCCCCCCCCCCCCCCCCC(=O)O)C(=O)O)C(=O)O)C(=O)N[C@@H](CC(N)=O)C(=O)N[C@@H]([C@@H](C)O)C(=O)N[C@@H](C)C(=O)N[C@@H]([C@@H](C)O)C(=O)N1)[C@@H](C)O)C(=O)N1CCC[C@H]1C(=O)N[C@@H](CO)C(=O)N[C@@H](CO)C(=O)N[C@H](C(=O)N1CCC[C@H]1C(=O)N[C@H](C(=O)NCC(=O)N1CCC[C@H]1C(=O)N[C@@H](CCCNC(=N)N)C(=O)N[C@H](C(=O)N[C@@H](Cc1ccc(O)cc1)C(N)=O)[C@@H](C)O)C(C)C)[C@@H](C)O)	0.381 nM	52.4 nM	137	48.6

Now those with a lower IC50 [1], led by results:

IC50 [1]	IC50 (rat calcitonin receptor [2])	Ratio rCT/rAmylin binding (rat calcitonin receptor [3])	Ratio hCT/hAmylin binding [4]	Binder
0.104 nM	5.43 nM	52.2	21.2	K([γGlu-C20 diacid])CNTATCATQRLAEFLRHSSPNFGAIPSSTNVGPHTY-NH2 (disulfide 2-7)
0.125 nM	9.05 nM	72.4	24.8	K([γGlu-C20 diacid])CNTATCATQRLAHFLRHSSPNFGAIPSSTPVGPNTY-NH2 (disulfide 2-7; N-terminus assumed; SMILES CC[C@H](C)[C@H](NC(=O)[C@H](C)NC(=O)CNC(=O)[C@H](Cc1ccccc1)NC(=O)[C@H](CC(N)=O)NC(=O)[C@@H]1CCCN1C(=O)[C@H](CO)NC(=O)[C@H](CO)NC(=O)[C@H](Cc1c[nH]cn1)NC(=O)[C@H](CCCNC(=N)N)NC(=O)[C@H](CC(C)C)NC(=O)[C@H](Cc1ccccc1)NC(=O)[C@H](Cc1c[nH]cn1)NC(=O)[C@H](C)NC(=O)[C@H](CC(C)C)NC(=O)[C@H](CCCNC(=N)N)NC(=O)[C@H](CCC(N)=O)NC(=O)[C@@H](NC(=O)[C@H](C)NC(=O)[C@@H]1CSSC[C@H](NC(=O)[C@@H](N)CCCCNC(=O)CC[C@H](NC(=O)CCCCCCCCCCCCCCCCCCC(=O)O)C(=O)O)C(=O)N[C@@H](CC(N)=O)C(=O)N[C@@H]([C@@H](C)O)C(=O)N[C@@H](C)C(=O)N[C@@H]([C@@H](C)O)C(=O)N1)[C@@H](C)O)C(=O)N1CCC[C@H]1C(=O)N[C@@H](CO)C(=O)N[C@@H](CO)C(=O)N[C@H](C(=O)N1CCC[C@H]1C(=O)N[C@H](C(=O)NCC(=O)N1CCC[C@H]1C(=O)N[C@@H](CC(N)=O)C(=O)N[C@H](C(=O)N[C@@H](Cc1ccc(O)cc1)C(N)=O)[C@@H](C)O)C(C)C)[C@@H](C)O)
